In PMC9482650, “Quantitative fragmentomics allow affinity mapping of interactomes” (Nature Communications, 2022):

Columns and labels:
Assay in all cases: holdup assay
Parameters in all cases: key: below the threshold = too weak to quantify, mostly under pKd 3.1 to 4
[1] = biological target: T1, APBA1_2, Q02410
T1 sequence (Q02410 742-832, limits assumed, looked up): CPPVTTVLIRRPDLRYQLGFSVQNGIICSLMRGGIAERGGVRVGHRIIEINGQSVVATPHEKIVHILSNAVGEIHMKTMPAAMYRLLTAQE

[2] = biological target: T2, APBA2_2, Q99767
T2 sequence (Q99767 654-744, limits assumed, looked up): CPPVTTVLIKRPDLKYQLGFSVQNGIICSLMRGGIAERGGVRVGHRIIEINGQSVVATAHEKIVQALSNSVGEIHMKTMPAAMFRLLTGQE

[3] = biological target: T3, ARHGEF11, O15085
T3 sequence (O15085 42-136, limits assumed, looked up): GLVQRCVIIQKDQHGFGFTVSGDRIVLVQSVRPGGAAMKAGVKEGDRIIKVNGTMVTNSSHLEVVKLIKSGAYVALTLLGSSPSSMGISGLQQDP

[4] = biological target: DLG4_1, P78352
Sequence of DLG4_1, P78352 (P78352 62-152): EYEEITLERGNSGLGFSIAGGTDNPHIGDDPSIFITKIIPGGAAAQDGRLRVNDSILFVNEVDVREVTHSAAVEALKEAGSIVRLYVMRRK

[5] = biological target: DLG4_2, P78352
Sequence of DLG4_2, P78352 (P78352 155-259): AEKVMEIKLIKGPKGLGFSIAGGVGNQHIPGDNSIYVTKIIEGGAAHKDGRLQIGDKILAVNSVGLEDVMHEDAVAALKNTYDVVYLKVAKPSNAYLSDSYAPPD

[6] = biological target: GIPC2, Q8TF65
Sequence of GIPC2, Q8TF65 (Q8TF65 112-203): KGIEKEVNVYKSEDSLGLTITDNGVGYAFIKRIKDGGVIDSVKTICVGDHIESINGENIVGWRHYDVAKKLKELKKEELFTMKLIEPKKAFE

[7] = biological target: T4, GRIP1_2, Q9Y3R0
T4 sequence (Q9Y3R0 145-248, limits assumed, looked up): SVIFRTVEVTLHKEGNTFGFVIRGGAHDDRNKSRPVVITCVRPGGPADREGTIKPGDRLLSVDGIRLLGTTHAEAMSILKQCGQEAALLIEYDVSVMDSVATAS

[8] = biological target: GRIP2_4, Q9C0E4
Sequence of GRIP2_4, Q9C0E4 (Q9C0E4 446-548): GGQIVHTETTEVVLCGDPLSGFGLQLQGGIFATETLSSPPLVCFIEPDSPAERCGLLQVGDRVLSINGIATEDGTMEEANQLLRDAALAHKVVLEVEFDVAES

[9] = biological target: IL16_4, Q14005
Sequence of IL16_4, Q14005 (Q14005 1229-1329): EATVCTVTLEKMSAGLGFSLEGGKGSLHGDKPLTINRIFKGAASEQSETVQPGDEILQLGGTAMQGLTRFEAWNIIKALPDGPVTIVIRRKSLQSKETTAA

[10] = biological target: Inadl_2, Q8NI35
Sequence of Inadl_2, Q8NI35 (Q8NI35 238-335): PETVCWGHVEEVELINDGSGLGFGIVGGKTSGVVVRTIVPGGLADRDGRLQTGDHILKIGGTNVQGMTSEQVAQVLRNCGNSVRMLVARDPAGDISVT

[11] = biological target: Inadl_4, Q8NI35
Sequence of Inadl_4, Q8NI35 (Q8NI35 547-651): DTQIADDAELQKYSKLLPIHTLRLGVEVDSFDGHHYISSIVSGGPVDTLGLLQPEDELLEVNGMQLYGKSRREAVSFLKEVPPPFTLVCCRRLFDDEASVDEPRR

[12] = biological target: Inadl_8, Q8NI35
Sequence of Inadl_8, Q8NI35 (Q8NI35 1425-1530): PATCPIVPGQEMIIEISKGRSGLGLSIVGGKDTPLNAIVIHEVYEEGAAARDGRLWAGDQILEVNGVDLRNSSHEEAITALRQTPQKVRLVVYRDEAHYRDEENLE

[13] = biological target: T5, LIN7A, O14910
T5 sequence (O14910 103-200, limits assumed, looked up): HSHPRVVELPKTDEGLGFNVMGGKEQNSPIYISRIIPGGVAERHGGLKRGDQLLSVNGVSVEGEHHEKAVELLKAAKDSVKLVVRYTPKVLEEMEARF

[14] = biological target: T6, LNX2_2, Q8N448
T6 sequence (Q8N448 334-432, limits assumed, looked up): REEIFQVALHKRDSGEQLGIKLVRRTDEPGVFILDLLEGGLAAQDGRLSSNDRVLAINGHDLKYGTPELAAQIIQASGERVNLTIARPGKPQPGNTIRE

[15] = biological target: MAGI1_1, Q96QZ7
Sequence of MAGI1_1, Q96QZ7 (Q96QZ7 1-106): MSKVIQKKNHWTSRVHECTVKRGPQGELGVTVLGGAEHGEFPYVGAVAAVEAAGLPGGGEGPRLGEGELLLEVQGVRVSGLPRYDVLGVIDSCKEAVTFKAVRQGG

[16] = biological target: T7, MPP7, Q5T2T1
T7 sequence (Q5T2T1 134-230, limits assumed, looked up): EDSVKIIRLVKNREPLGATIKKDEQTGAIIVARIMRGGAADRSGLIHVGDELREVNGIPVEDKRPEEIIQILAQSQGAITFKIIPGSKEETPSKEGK

[17] = biological target: T8, NHERF3_3, Q5T2W1
T8 sequence (Q5T2W1 238-333, limits assumed, looked up): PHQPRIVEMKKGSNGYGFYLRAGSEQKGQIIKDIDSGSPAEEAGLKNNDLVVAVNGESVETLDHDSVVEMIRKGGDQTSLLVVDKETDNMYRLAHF

[18] = biological target: NOS1, P29475
Sequence of NOS1, P29475 (P29475 9-101): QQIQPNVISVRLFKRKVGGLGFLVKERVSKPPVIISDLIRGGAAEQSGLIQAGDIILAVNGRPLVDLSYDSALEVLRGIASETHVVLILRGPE

[19] = biological target: PARD3_3, Q8TEW0
Sequence of PARD3_3, Q8TEW0 (Q8TEW0 582-685): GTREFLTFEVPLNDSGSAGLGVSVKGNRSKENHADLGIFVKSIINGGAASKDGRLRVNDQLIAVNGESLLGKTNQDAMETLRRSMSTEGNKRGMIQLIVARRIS

[20] = biological target: PDZRN4_1, Q6ZMN7
Sequence of PDZRN4_1, Q6ZMN7 (Q6ZMN7 213-318): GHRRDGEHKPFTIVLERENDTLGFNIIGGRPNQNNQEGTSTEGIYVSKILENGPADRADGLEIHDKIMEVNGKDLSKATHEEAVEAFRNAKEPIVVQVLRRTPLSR

[21] = biological target: PICK1, Q9NRD5
Sequence of PICK1, Q9NRD5 (Q9NRD5 17-115): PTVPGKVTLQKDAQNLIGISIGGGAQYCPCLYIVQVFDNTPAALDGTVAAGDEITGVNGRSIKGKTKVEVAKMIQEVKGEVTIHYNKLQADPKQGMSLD

[22] = biological target: T9, PTPN13_1, Q12923
T9 sequence (Q12923 1088-1188, limits assumed, looked up): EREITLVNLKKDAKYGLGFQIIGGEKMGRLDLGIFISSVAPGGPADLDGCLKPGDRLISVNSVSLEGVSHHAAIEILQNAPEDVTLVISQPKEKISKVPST

[23] = biological target: T10, SNTA1, Q13424
T10 sequence (Q13424 82-180, limits assumed, looked up): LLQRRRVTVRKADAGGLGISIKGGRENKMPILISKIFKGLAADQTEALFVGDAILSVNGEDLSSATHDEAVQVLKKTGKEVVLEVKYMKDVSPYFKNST

[24] = biological target: T11, SNTG1, Q9NSN8
T11 sequence (Q9NSN8 52-150, limits assumed, looked up): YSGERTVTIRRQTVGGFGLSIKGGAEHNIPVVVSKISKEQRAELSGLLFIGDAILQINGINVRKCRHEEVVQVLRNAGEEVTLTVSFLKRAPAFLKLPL

[25] = biological target: SNX27, Q96L92
[26] = biological target: T12, SYNJ2BP, P57105
T12 sequence (P57105 8-110, limits assumed, looked up): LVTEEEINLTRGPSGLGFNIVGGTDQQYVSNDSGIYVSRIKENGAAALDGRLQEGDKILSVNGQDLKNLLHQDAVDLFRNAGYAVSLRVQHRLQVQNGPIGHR

[27] = plain residues with an end cap or a label only (N-terminal biotin on a linker: ttds)
[28] = plain residues with an end cap or a label only (N-terminal biotin on a linker: ado-ado)

B1: TANC2, Q9HCD6 (peptide)
chain: PKRPFVESNV
- pKd [1, 27]: below the threshold
- pKd [2, 27]: below the threshold
- pKd [3, 27]: below the threshold
- pKd [4, 27]: 4.32
- pKd [5, 27]: 4.6
- pKd [6, 27]: below the threshold
- pKd [7, 27]: below the threshold
- pKd [8, 27]: below the threshold
- pKd [9, 27]: below the threshold
- pKd [10, 27]: below the threshold
- pKd [11, 27]: below the threshold
- pKd [12, 27]: 3.68
- pKd [13, 27]: below the threshold
- pKd [14, 27]: below the threshold
- pKd [15, 27]: below the threshold
- pKd [16, 27]: below the threshold
- pKd [17, 27]: below the threshold
- pKd [18, 27]: below the threshold
- pKd [19, 27]: below the threshold
- pKd [20, 27]: below the threshold
- pKd [21, 27]: below the threshold
- pKd [22, 27]: below the threshold
- pKd [23, 27]: 4.33
- pKd [24, 27]: 4.79
- pKd [25, 27]: 4.8
- pKd [26, 27]: 5.08

B2: CIT, O14578 (peptide)
chain: VNKVWDQSSV
- pKd [1, 27]: 3.49
- pKd [2, 27]: below the threshold
- pKd [3, 27]: below the threshold
- pKd [4, 27]: below the threshold
- pKd [5, 27]: below the threshold
- pKd [6, 27]: 3.51
- pKd [7, 27]: below the threshold
- pKd [8, 27]: below the threshold
- pKd [9, 27]: below the threshold
- pKd [10, 27]: below the threshold
- pKd [11, 27]: below the threshold
- pKd [12, 27]: 4
- pKd [13, 27]: below the threshold
- pKd [14, 27]: below the threshold
- pKd [15, 27]: below the threshold
- pKd [16, 27]: below the threshold
- pKd [17, 27]: below the threshold
- pKd [18, 27]: below the threshold
- pKd [19, 27]: below the threshold
- pKd [20, 27]: below the threshold
- pKd [21, 27]: below the threshold
- pKd [22, 27]: below the threshold
- pKd [23, 27]: below the threshold
- pKd [24, 27]: 3.73
- pKd [25, 27]: 5.11
- pKd [26, 27]: 4.65

B3: KIDINS220, Q9ULH0 (peptide)
chain: GFGEERESIL
- pKd [1, 28]: below the threshold
- pKd [2, 28]: below the threshold
- pKd [3, 28]: 3.8
- pKd [4, 28]: below the threshold
- pKd [5, 28]: 3.5
- pKd [6, 28]: 3.87
- pKd [7, 28]: below the threshold
- pKd [8, 28]: below the threshold
- pKd [9, 28]: 3.74
- pKd [10, 28]: below the threshold
- pKd [11, 28]: below the threshold
- pKd [12, 28]: below the threshold
- pKd [13, 28]: 3.55
- pKd [14, 28]: below the threshold
- pKd [15, 28]: below the threshold
- pKd [16, 28]: below the threshold
- pKd [17, 28]: below the threshold
- pKd [18, 28]: below the threshold
- pKd [19, 28]: 4.35
- pKd [20, 28]: 4.61
- pKd [21, 28]: 4.14
- pKd [22, 28]: below the threshold
- pKd [23, 28]: 5.26
- pKd [24, 28]: 3.62
- pKd [25, 28]: 5.59
- pKd [26, 28]: 3.95

B4: MAP4, P27816 (peptide)
chain: LDSQIQETSI
- pKd [1, 27]: below the threshold
- pKd [2, 27]: below the threshold
- pKd [3, 27]: below the threshold
- pKd [4, 27]: 3.5
- pKd [5, 27]: 4.18
- pKd [6, 27]: below the threshold
- pKd [7, 27]: below the threshold
- pKd [8, 27]: below the threshold
- pKd [9, 27]: below the threshold
- pKd [10, 27]: below the threshold
- pKd [11, 27]: below the threshold
- pKd [12, 27]: below the threshold
- pKd [13, 27]: below the threshold
- pKd [14, 27]: below the threshold
- pKd [15, 27]: below the threshold
- pKd [16, 27]: below the threshold
- pKd [17, 27]: below the threshold
- pKd [18, 27]: 3.55
- pKd [19, 27]: 3.86
- pKd [20, 27]: 4.84
- pKd [21, 27]: below the threshold
- pKd [22, 27]: below the threshold
- pKd [23, 27]: 4.8
- pKd [24, 27]: 5.31
- pKd [25, 27]: 5.73
- pKd [26, 27]: 4.95
